Experimental data as given in the supplement of paper PMC7125110.
± gives the standard error. Fewer inactive variants are shown than the library holds.

B1: glmS ribozyme (parent)
chain: AUAAAAGCGCCAGAACUACAGAAAUGUAGUUGACGAGGAGGAGGUUUAUCGAAUUUUCGGCGGAUGCCUCCAAA

How the values were obtained:
Details in all cases: with glucosamine-6-phosphate
[1] = variants of: B1; assay: self-cleavage kobs at 160 uM GlcN6P; higher = faster cleavage; RNA array
Outline: (§1)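 kcat and KM were obtained from weighted Michaelis–Menten fits across concentrations of kobs values. Those came from one- or two-exponential decay fits to per-tile medians normalised to baseline and to non-cleaving reference variants. The variants were barcoded ribozymes transcribed in situ by E. coli RNA polymerase on sequenced MiSeq chips and tracked through a hybridised Cy3 probe at 37 °C, with 40 μM to 10 mM glucosamine-6-phosphate in HEPES/KCl/Mg(OAc)2 buffer flowed in.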

[2] = variants of: B1; assay: self-cleavage kobs at 640 uM GlcN6P; higher = faster cleavage; RNA array
Outline: as §1

[3] = variants of: B1; assay: self-cleavage kobs at 10000 uM GlcN6P; higher = faster cleavage; RNA array
Outline: as §1

[4] = variants of: B1; assay: self-cleavage kobs at 2500 uM GlcN6P; higher = faster cleavage; RNA array
Outline: as §1

Row | Variant | self-cleavage kobs at 160 uM GlcN6P [1] | self-cleavage kobs at 640 uM GlcN6P [2] | self-cleavage kobs at 10000 uM GlcN6P [3] | self-cleavage kobs at 2500 uM GlcN6P [4]
1 | AUAAAAGCGCCAGAACUACAGAAAUUUAGUUGACGAGGAGGAGGUUUAUGGAAUUUUCGGCGGAUGCUUCCAAA [G26U C50G C68U] | 0.000155 ± 5.5e-05 s⁻¹ |  |  | 
2 | AUAAAAGCGCCAGAACUACAGAAAUGUAAUUGACGAGGAGGAGGUUUAUCGCAUUUUCGGCGGAUGCCUCCAAA [G29A A52C] | < 1e-05 s⁻¹ | < 1e-05 s⁻¹ | < 1e-05 s⁻¹ | 
3 | AUAAAAGCGCCAGAACUACAGAAAUGUAGAUAACGAGGGGGAGGUUUAUCGAAUUUUCGGCGGAUGCCUCCAAA [U30A G32A A39G] | 6.92e-05 ± 2.4e-05 s⁻¹ | 0.000602 ± 0.00013 s⁻¹ | 0.00306 ± 0.00073 s⁻¹ | 0.000618 ± 0.0002 s⁻¹
4 | AUAAAAGCGCCAGAACUACAGAAAUGUAAUUGACGAGGAGGGGGAUUAUCGAAUUUUCGGCGGAUGCCUCCAAA [G29A A42G U45A] | 6.61e-05 ± 3e-05 s⁻¹ | 0.00154 ± 0.00038 s⁻¹ |  | 0.00402 ± 0.0015 s⁻¹
5 | AUAAAAGCGCCAGAACUACUGAAAUGUAGUUGACGAGGAGGAGGUUUAUCGAAUUCUCGGCGGAUGCCUCCAAA [A20U U56C] | 0.000306 ± 8.2e-05 s⁻¹ |  |  | 0.0029 ± 0.00075 s⁻¹
6 | AUAAAAGCGCCAGAACGACAGAAAUGUAGUUGACGAGGAGGAGGUUUAUCGAAUUUUCGGCGGAUGCCUCCAAA [U17G] | 0.00191 ± 0.00076 s⁻¹ | 0.00535 ± 0.0016 s⁻¹ |  | 
7 | AUAAAAGCGCCAGAACUACAGAAAUGUAAUGGACGAGGAGGAGGUUUAUUGAAUUUUCGGCGGAUGCAUCCAAA [G29A U31G C50U C68A] | 5.27e-05 ± 2.2e-05 s⁻¹ | 7.43e-05 ± 2.9e-05 s⁻¹ |  | 8.2e-05 ± 3.2e-05 s⁻¹
8 | AUAAAAGCGCCAGAACUACAGAAAUGUACUUGACGAGGAGGAGGUUUAUCGAAUUUUCUGCGGAUGCUUCCAAA [G29C G59U C68U] | 0.000173 ± 8.1e-05 s⁻¹ |  |  | 
9 | AUAAAAGCGCCAGAACUACAGAAAUGUAAUUCUCGAGGAGGAGGUUUAUCGAAUUUUCGCCGGAUUCCUCCAAA [G29A G32C A33U G60C G66U] | < 1e-05 s⁻¹ |  | < 1e-05 s⁻¹ | 
10 | AUAAAAGCGCCAGAACUACAGAAAUGUAUUUGACGAGGAGGAGGUUUAUCGAAUUUUCGGCGGAUGCCCCCAAA [G29U U69C] | 3.84e-05 ± 1.5e-05 s⁻¹ | 0.000356 ± 9e-05 s⁻¹ |  | 0.000114 ± 3.1e-05 s⁻¹
11 | AUAAAAGCGCCAGAACUACAGAAAUGUAGAUGACGAGGAGCAGGUUUAACGAAUUUUCGGCGGAUGCCUCCAAA [U30A G41C U49A] | < 1e-05 s⁻¹ | < 1e-05 s⁻¹ | < 1e-05 s⁻¹ | < 1e-05 s⁻¹
12 | AUAAAAGCGCCAGAACUACAGAAAUGUAGAUGACCAGGAGGAGGUUUAUGGAAUUUUCGGCGGAUGCAUCUAAA [U30A G35C C50G C68A C71U] | 8.36e-05 ± 2.8e-05 s⁻¹ | 0.00197 ± 0.00057 s⁻¹ |  | 0.000671 ± 0.00025 s⁻¹
13 | AUAAAAGCGCCAGAACUACAGAAAUGUAGAUGACGAGGAGGAGGUUUAUCAAAUUUUCGGCGGAUGCCUCCAAA [U30A G51A] | < 1e-05 s⁻¹ |  |  | 
14 | AUAAAAGCGCCAGAACUACAGAAAUGUAAUUGACGAGGAGGAGGUUUAUCGAAUUUUCGGCAGAUGCCUCCAAA [G29A G62A] | < 1e-05 s⁻¹ | < 1e-05 s⁻¹ |  | < 1e-05 s⁻¹
15 | AUAAAAGCGCCAGAACUACAGAAAUUUAGUUGACAAGGAGGAGGUUUAUGGAAUUGUCGGCGGAUGCCUCCAAA [G26U G35A C50G U56G] | 6.16e-05 ± 2.2e-05 s⁻¹ |  |  | 8.89e-05 ± 1.8e-05 s⁻¹
16 | AUAAAAGCGCCAGAACUACAGAAAUGUAGAUGACGAGGAGGAGGUUUAUCGAAUUUUCUGUGGAUGCCUCCAAA [U30A G59U C61U] | < 1e-05 s⁻¹ | < 1e-05 s⁻¹ |  | 

Row | Variant | self-cleavage kobs at 160 uM GlcN6P [1] | self-cleavage kobs at 640 uM GlcN6P [2] | self-cleavage kobs at 10000 uM GlcN6P [3] | self-cleavage kobs at 2500 uM GlcN6P [4]
17 | AUAAAAGCGCCAGAACUACAUAAAUGUAGUUGACGAGGAGGAGGUUUAUCGAAUUUUCGGCGGAUGCCUCGAAA [G21U C71G] | 0.000226 ± 5.1e-05 s⁻¹ | 0.000218 ± 3.9e-05 s⁻¹ |  | 0.000294 ± 5.9e-05 s⁻¹
18 | AUAAAAGCGCCAGAACUACAGAAAUGUAGAUGACGAGGAGGAGGUUUAUCGAUUUUUCGGCGGAUGCCUUCAAA [U30A A53U C70U] | 0.000167 ± 4.8e-05 s⁻¹ | 0.000821 ± 0.0002 s⁻¹ |  | 
19 | AUAAAAGCGCCAGAACUACAGAAAUGUAUUUGACGAGGAGGUGGUUUUUCGAAUUUUCGGCAGAUGCCUCCAAA [G29U A42U A48U G62A] | < 1e-05 s⁻¹ |  |  | < 1e-05 s⁻¹
20 | AUAAAAGCGCCAGAACUACAGAAAUGUAUUUGACGAGCUGGAGGUUUAUAGAAUUUUCGGCGGAUGCCUCCAAA [G29U G38C A39U C50A] | < 1e-05 s⁻¹ | < 1e-05 s⁻¹ |  | 
21 | AUAAAAGCGCCAGAACUAAAGAAAUGUAGUUGAGGAGGCGGAGGUUUAUCGAAUUUUCGGCGGAUGCCUCCAAA [C19A C34G A39C] | < 1e-05 s⁻¹ | < 1e-05 s⁻¹ |  | < 1e-05 s⁻¹
22 | AUAAAAGCGCCAGAACCACAGAAAUGUAGUUGACGAGGAGGAGGUUUAUGGAAUUUUCGGCGGAUGCCUCUAAA [U17C C50G C71U] | 6.74e-05 ± 2.2e-05 s⁻¹ | 0.000319 ± 9.7e-05 s⁻¹ |  | 0.000253 ± 4.6e-05 s⁻¹
23 | AUAAAAGCGCCAGAACUACAGAAAUGUAUUUGACGAGGAGGUGGUUUAUCGUAUUUUCGGCGGAUGGCUCCAAA [G29U A42U A52U C67G] | < 1e-05 s⁻¹ | < 1e-05 s⁻¹ |  | 
24 | AUAAAAGCGCCAGAACUACAGAAAUGUACUUGACGACGAGCAGGUUUAUCGAAUUUUCGGCGGAUGCCUCCAAA [G29C G37C G41C] | < 1e-05 s⁻¹ |  |  | < 1e-05 s⁻¹
25 | AUAAAAGCGCCAGAAUUACAGAAAUGUAGUUGACGAGGAGGAGGUUUAUCGAAUUUUCGCCGGAUGCCUCCAAA [C16U G60C] | < 1e-05 s⁻¹ | < 1e-05 s⁻¹ |  | < 1e-05 s⁻¹
26 | AUAAAAGCGCCAGAACUACAGAAAUUUAGUUGACGAGGAGGAGGUUUAUCGGAUUUUCGGCGGAUGCCUCCAAA [G26U A52G] | 9.82e-05 ± 2.9e-05 s⁻¹ |  |  | 0.000726 ± 0.00017 s⁻¹
27 | AUAAAAGCGCCAGAACUACAGAAAUGUACUUGACGAGGAGGAGGUUUAUCGAAUUUUCGGCGGAUGCCGCCAAA [G29C U69G] | 3.65e-05 ± 9.9e-06 s⁻¹ | 9.83e-05 ± 1.7e-05 s⁻¹ |  | 4.13e-05 ± 1.1e-05 s⁻¹
28 | AUAAAAGCGCCAGAACUACAGAAAUGUACUUGACGAGGAGGAGGUUUAUCGAAUUUUCGGCGGAUGCCACCAAA [G29C U69A] | 4.08e-05 ± 1.4e-05 s⁻¹ | 8.01e-05 ± 1.7e-05 s⁻¹ |  | 2.32e-05 ± 1e-05 s⁻¹
29 | AUAAAAGCGCCAGAACUACAGAAAUGUAAUUGACGAGGAGGAGGUUUAUCGAAUUUUCGGCGGAAGCCUUCAAA [G29A U65A C70U] | 7.19e-05 ± 3e-05 s⁻¹ | 8.13e-05 ± 1.7e-05 s⁻¹ |  | 0.000148 ± 3.6e-05 s⁻¹
30 | AUAAAAGCGCCAGAACUACAGAAAUGUAGAUGACGAGGAGGAGGUUUAUAGAAUUUUCGGCGGAUGCCUCCAAA [U30A C50A] | < 1e-05 s⁻¹ |  |  | 
31 | AUAAAAGCGCCAGAACUACAGAAAUGUAUUUGACGAGGAGGAGGUUUAUCGGAUUUUCGGGGGAUGCUACCAAA [G29U A52G C61G C68U U69A] | 4.87e-05 ± 1.6e-05 s⁻¹ | 3.32e-05 ± 1.6e-05 s⁻¹ |  | 
